In patent US20230099149A1 (INNATE PHARMA, published 2023):

Assays:
[1] = target: T1, human Nectin-4 at the surface of SUM185 and SUM190 human breast cancer tumor cells (human, UniProt Q96NY8 32-510); assay: cell-based or functional assay
T1 sequence: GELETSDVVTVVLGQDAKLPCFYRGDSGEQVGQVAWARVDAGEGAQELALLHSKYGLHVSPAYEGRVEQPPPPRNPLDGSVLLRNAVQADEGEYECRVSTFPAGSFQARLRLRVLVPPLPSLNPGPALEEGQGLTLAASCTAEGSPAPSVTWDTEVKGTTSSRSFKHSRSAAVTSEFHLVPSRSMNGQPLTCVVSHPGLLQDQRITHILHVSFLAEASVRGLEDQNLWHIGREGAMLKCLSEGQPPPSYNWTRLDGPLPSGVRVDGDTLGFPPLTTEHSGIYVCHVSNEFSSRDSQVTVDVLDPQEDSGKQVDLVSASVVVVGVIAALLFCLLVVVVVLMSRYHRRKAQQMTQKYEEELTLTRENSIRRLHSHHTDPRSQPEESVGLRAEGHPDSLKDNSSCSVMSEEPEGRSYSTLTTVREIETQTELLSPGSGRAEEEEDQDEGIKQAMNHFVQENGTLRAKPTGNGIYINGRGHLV

[2] = target: T2, wild-type human Nectin-4 protein expressed on CHO cells (huNectin4 CI.3C8 cell line) (human, UniProt Q96NY8 32-510); assay: flow cytometry on CHO cells expressing wild-type human Nectin-4
T2 construct: also called whole Nectin-4 protein; wild type Nectin-4
T2 sequence: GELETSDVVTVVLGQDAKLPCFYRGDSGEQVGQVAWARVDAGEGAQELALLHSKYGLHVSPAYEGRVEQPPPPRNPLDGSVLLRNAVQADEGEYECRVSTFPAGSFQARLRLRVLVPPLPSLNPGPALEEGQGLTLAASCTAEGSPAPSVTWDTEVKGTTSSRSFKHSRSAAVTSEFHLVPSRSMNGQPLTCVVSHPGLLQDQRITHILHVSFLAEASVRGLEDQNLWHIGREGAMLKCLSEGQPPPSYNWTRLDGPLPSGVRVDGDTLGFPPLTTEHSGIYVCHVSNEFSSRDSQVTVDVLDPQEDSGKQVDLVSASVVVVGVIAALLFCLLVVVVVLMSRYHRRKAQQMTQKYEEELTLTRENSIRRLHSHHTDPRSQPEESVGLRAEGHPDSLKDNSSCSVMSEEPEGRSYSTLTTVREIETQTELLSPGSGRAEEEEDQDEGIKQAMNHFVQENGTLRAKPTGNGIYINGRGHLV

[3] = target: T3, modified Nectin-4 having the Ig-like C2 type 1 and the Ig-like C2 type 2 domains and lacking the Ig-like V … (human, UniProt Q96NY8 148-510); assay: flow cytometry on CHO cells expressing Nectin4-C1C2-V5
T3 construct: also called C1C2 construct
T3 sequence: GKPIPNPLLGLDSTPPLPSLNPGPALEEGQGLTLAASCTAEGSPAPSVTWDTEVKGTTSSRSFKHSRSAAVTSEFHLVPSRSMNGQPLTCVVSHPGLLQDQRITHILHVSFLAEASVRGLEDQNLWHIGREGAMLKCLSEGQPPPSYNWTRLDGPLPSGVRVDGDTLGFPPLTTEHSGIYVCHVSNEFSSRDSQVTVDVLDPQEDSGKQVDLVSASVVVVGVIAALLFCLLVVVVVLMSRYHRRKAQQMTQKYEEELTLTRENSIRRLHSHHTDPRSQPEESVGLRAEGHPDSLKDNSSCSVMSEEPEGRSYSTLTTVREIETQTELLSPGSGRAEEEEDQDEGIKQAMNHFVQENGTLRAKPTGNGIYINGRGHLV

| Binder | IC50 of cell death, SUM185 cells, Cell Titer Glo viability at day 6 [1] | IC50 of cell death, SUM190 cells, Cell Titer Glo viability at day 6 [1] | binding result [2] | binding result [3] |
| --- | --- | --- | --- | --- |
| N4 ADC1: anti-Nectin-4 antibody (VH and VL of SEQ ID NOS: 9 and 10, human IgG1) conjugated to a linker-camptothecin analogue (antibody, V domains shown, linker-camptothecin analogue conjugated stochastically via cysteine residues after partial reduction of interchain disulfide; average drug:antibody ratio of about 8) VH: QVQLKQSGPGLVQPSQSLSITCTVSGFSLTNYGVHWVRQSPGKGLEWLGVIWSGGSTDYNAAFISRLSISKDTSKSQVFFKMNSLQADDTAIYYCARELIHAMDNWGQGTSVTVSS VL: DIQMTQSPASLSVSVGETVTITCRASENIYSNLAWYQQKQGNSPQLLVFAATNLADGVPSRFSGSGSGTQYSLKINSLQSEDFGTYYCQHFWGTPTFGGGTKLEIK | 0.05 nM | 0.1 nM |  |  |
| N4 ADC2: anti-Nectin-4 antibody (VH and VL of SEQ ID NOS: 9 and 10, human IgG1) conjugated to a SN-38 containing linker (antibody, V domains shown, SN-38 containing linker conjugated via cysteine residues after partial reduction of interchain disulfide) VH: QVQLKQSGPGLVQPSQSLSITCTVSGFSLTNYGVHWVRQSPGKGLEWLGVIWSGGSTDYNAAFISRLSISKDTSKSQVFFKMNSLQADDTAIYYCARELIHAMDNWGQGTSVTVSS VL: DIQMTQSPASLSVSVGETVTITCRASENIYSNLAWYQQKQGNSPQLLVFAATNLADGVPSRFSGSGSGTQYSLKINSLQSEDFGTYYCQHFWGTPTFGGGTKLEIK |  | 0.4 nM |  |  |
| N41 (VH and VL of SEQ ID NOS: 9 and 10 as human IgG1 isotype) (antibody, V domains shown, also called mAbC) VH: QVQLKQSGPGLVQPSQSLSITCTVSGFSLTNYGVHWVRQSPGKGLEWLGVIWSGGSTDYNAAFISRLSISKDTSKSQVFFKMNSLQADDTAIYYCARELIHAMDNWGQGTSVTVSS VL: DIQMTQSPASLSVSVGETVTITCRASENIYSNLAWYQQKQGNSPQLLVFAATNLADGVPSRFSGSGSGTQYSLKINSLQSEDFGTYYCQHFWGTPTFGGGTKLEIK |  |  | binds | no binding |
| enfortumab (VH and VL of SEQ ID NOS: 3 and 4 as human IgG1 isotype) (antibody, V domains shown, also called mAbA; ASG-22ME) VH: EVQLVESGGGLVQPGGSLRLSCAASGFTFSSYNMNWVRQAPGKGLEWVSYISSSSSTIYYADSVKGRFTISRDNAKNSLSLQMNSLRDEDTAVYYCARAYYYGMDVWGQGTTVTVSS VL: DIQMTQSPSSVSASVGDRVTITCRASQGISGWLAWYQQKPGKAPKFLIYAASTLQSGVPSRFSGSGSGTDFTLTISSLQPEDFATYYCQQANSFPPTFGGGTKVEIKR |  |  |  | no binding |
